In publication PMC11332147, “Repression of Acinetobacter baumannii DNA damage response requires DdrR-assisted binding of UmuDAb dimers to atypical SOS box” one finds binding result, Kd and binding signal data, which are given here for nine molecules.

The target in data set [1] is T1, UmuDAb (Acinetobacter baumannii ATCC 17978 JH, UniProt A0A0D5YJU0 1-203).
T1 sequence: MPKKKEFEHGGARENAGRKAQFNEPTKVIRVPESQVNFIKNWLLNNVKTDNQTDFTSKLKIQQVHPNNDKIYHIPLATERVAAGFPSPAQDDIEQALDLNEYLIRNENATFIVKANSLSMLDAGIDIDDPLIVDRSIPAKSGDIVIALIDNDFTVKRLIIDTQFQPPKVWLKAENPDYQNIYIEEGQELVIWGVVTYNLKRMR
Description: competition; 100x competitor; […] (10x = 100 mM Tris, 500 mM KCl, 10 mM DTT, […]. To be noted: protein: recombinant; chain copies: 2; blunt.

Data set [2] deals with T1, UmuDAb. Description: competition; 100x competitor; also fails vs L2-labeled probe (Fig S3); […] (10x = 100 mM Tris, 500 mM KCl, 10 mM DTT, […]. To be noted: protein: recombinant, chain copies: 2, blunt.
The next data set concerns the target UmuDAb A83Y (Acinetobacter baumannii ATCC 17978 JH, UniProt A0A0D5YJU0 1-203, A83Y). Description: EMSA; Hill 4.65; legend gives 69 nM; […] (10x = 100 mM Tris, 500 mM KCl, 10 mM DTT, […]. To be noted: protein: recombinant; chain copies: 2; label: 5' IRDye700 on both strands; blunt.
The target of data set [3] is T1, UmuDAb. The experiment in a line: EMSA; Hill 4.9; EMSA: LI-COR Odyssey binding buffer (10x = 100 mM Tris, 500 mM KCl, 10 mM DTT, pH 7.5), 25 mM DTT, 1 ug/uL poly(dI-dC), 200 fmol probe per 20 uL, 20 min at room temperature; 5% TBE gel run at 4 C. To be noted: protein: recombinant; chain copies: 2; label: 5' IRDye700 on both strands; blunt. Background: A gel shift assay detects complexes by their altered migration in electrophoresis.

The target in the next data set is UmuDAb HTH1 (Acinetobacter baumannii ATCC 17978 JH, UniProt A0A0D5YJU0 1-203, E24K). Description: EMSA; Hill 6.1; 94% bound; […] (10x = 100 mM Tris, 500 mM KCl, 10 mM DTT, […]. To be noted: protein: recombinant; chain copies: 2; label: 5' IRDye700 on both strands; blunt.
For the next data set, the target named is UmuDAb HTH2 (Acinetobacter baumannii ATCC 17978 JH, UniProt A0A0D5YJU0 1-203, K40P;N41P). Description: EMSA; Hill 10.8; 78% bound; […] (10x = 100 mM Tris, 500 mM KCl, 10 mM DTT, […]. To be noted: protein: recombinant; chain copies: 2; label: 5' IRDye700 on both strands; blunt.
The target in the next data set is UmuDAb R201X (Acinetobacter baumannii ATCC 17978 JH, UniProt A0A0D5YJU0 1-200). Description: EMSA; 60-70% bound above 1 uM; […] (10x = 100 mM Tris, 500 mM KCl, 10 mM DTT, […]. To be noted: protein: recombinant; chain copies: 2; label: 5' IRDye700 on both strands; blunt.
The target of the next data set is UmuDAb N100D (Acinetobacter baumannii ATCC 17978 JH, UniProt A0A0D5YJU0 1-203, N100D). The experiment in a line: EMSA; Bmax < 0.90; […] (10x = 100 mM Tris, 500 mM KCl, 10 mM DTT, […]. To be noted: protein: recombinant; chain copies: 2; label: 5' IRDye700 on both strands; blunt.
A further data set concerns the target UmuDAb G124D (Acinetobacter baumannii ATCC 17978 JH, UniProt A0A0D5YJU0 1-203, G124D). The description is as above. To be noted: protein: recombinant; chain copies: 2; label: 5' IRDye700 on both strands; blunt.
Another data set deals with UmuDAb W192X (Acinetobacter baumannii ATCC 17978 JH, UniProt A0A0D5YJU0 1-191). The experiment in a line: EMSA; Hill 6.1; 60-70% bound above 1 uM; […] (10x = 100 mM Tris, 500 mM KCl, 10 mM DTT, […]. To be noted: protein: recombinant; chain copies: 2; label: 5' IRDye700 on both strands; blunt.
Data set [4] has as its target T1, UmuDAb. The experiment in a line: EMSA; no higher MW second band; […] (10x = 100 mM Tris, 500 mM KCl, 10 mM DTT, […]. To be noted: protein: recombinant; chain copies: 2; blunt.
The target of data set [5] is T1, UmuDAb. Description: competition; 100x competitor; not different from WT; […] (10x = 100 mM Tris, 500 mM KCl, 10 mM DTT, […]. To be noted: protein: recombinant; chain copies: 2; blunt.

B1: LR3 (dsDNA)
DNA 1: TCGTCAACCCAGAAATGTAACTTTTCTGGGTTACATT
DNA 2: AATGTAACCCAGAAAAGTTACATTTCTGGGTTGACGA
Turning to B1, the binding result with UmuDAb [1] was “no binding”.

B2: L2C31-2 (dsDNA)
DNA 1: TCGTCAACCCAGAAATTCAACTTTTTCAAGTTACATT
DNA 2: AATGTAACTTGAAAAAGTTGAATTTCTGGGTTGACGA
Take B2: the binding result with UmuDAb [2] is “no binding”.

B3: L2C34-5 (dsDNA)
DNA 1: TCGTCAACCCAGAAATGTAGATTTTTCAAGTTACATT
DNA 2: AATGTAACTTGAAAAAATTACATTTCTGGGTTGACGA
Regarding B3, the binding result with UmuDAb [2] (2 mismatches in core as printed) is “no binding”.

B4: WT 37 bp UmuDAb operator probe (dsDNA)
DNA 1: TCGTCAACTTGAAAATGTAACTTTTTCAAGTTACATT
DNA 2: AATGTAACTTGAAAAAGTTACATTTTCAAGTTGACGA
For the molecule B4, the Kd (commonly the concentration at which binding is half-saturated) amounted to 70 nM in the data set with UmuDAb A83Y; 38.9 nM with UmuDAb [3]; 99 nM with UmuDAb HTH1; 114 nM in the data set with UmuDAb HTH2; 353 nM with UmuDAb R201X; 306 nM in the data set with UmuDAb N100D. Further, the Kd with UmuDAb G124D stood at 390 nM; with UmuDAb W192X, 540 nM.

B5: L2 labeled probe (dsDNA)
DNA 1: TCGTCAACCCAGAAATGTAACTTTTTCAAGTTACATT
DNA 2: AATGTAACTTGAAAAAGTTACATTTCTGGGTTGACGA
With B5, in the data set with UmuDAb [4], the binding signal was ~0.75 Kd ratio to WT probe.

B6: R2 (dsDNA)
DNA 1: TCGTCAACTTGAAAATGTAACTTTTCTGGGTTACATT
DNA 2: AATGTAACCCAGAAAAGTTACATTTTCAAGTTGACGA
Turning to B6, the binding result with UmuDAb [5] was “binds”.

B7: C3 (dsDNA)
DNA 1: TCGTCAACTTGAAAATTCAGATTTTTCAAGTTACATT
DNA 2: AATGTAACTTGAAAAATCTGAATTTTCAAGTTGACGA
Turning to B7, the binding result in the data set with UmuDAb [1] is “no binding”.

B8: L1 (dsDNA)
DNA 1: TCGTCAACTTGAAAATGTAACTTTTTTGAGTTACATT
DNA 2: AATGTAACTCAAAAAAGTTACATTTTCAAGTTGACGA
On to B8, for which, in the data set with UmuDAb [5], the binding result is “binds”.

B9: R1 (dsDNA)
DNA 1: TCGTCAACTCAAAAATGTAACTTTTTCAAGTTACATT
DNA 2: AATGTAACTTGAAAAAGTTACATTTTTGAGTTGACGA
Consider B9, for which the binding result in the data set with UmuDAb [5] was “binds”.
